In patent publication US20150024957, “Methods and Devices for Detection and Measurement of Analytes” (THE UNIVERSITY OF TOLEDO, published 2015):

Target: Bovine serum albumin (BSA) (Bos taurus, UniProt P02769 P02769:25-607)
Assay: SPR; 400 nM BSA; minimal effect on response of aptamer sensor
Conditions: tags: Sigma Aldrich
Experimental: Non-coated (i.e., no gold) SensiQ base sensors were custom modified with the developed gold based SPR sensing surfaces. Specifically, freshly prepared aptamer-immobilized gold substrates were coupled to the stripped sensors with index matching optical oil. This was followed by then loading of 100 μL 1 M ethanolamine (EA) at a flow rate of 20 μL/min to block the non-occupied MPA sites activated by the EDC/NHS, followed by an injection of 100 μL of 100 mM phosphoric acid (PPA) at 50 μL/min to remove the non-specific binding. The running buffer was 0.1 M pH 7.2 PBS. The sensor was first normalized with the buffer for 10 min, then the thrombin sample (25 μL) at concentrations of 5 nM, 25 nM, 50 nM, 250 nM 500 nM, 1000 nM, 2000 nM were loaded at 5 μL/min. Samples with BSA were all prepared with 400 nM BSA. All data was recorded at 290 s, 300 s, and 310 s after the sample injection and averaged. Sensor regeneration was performed by the injection of 100 μL PPA at 50 μL/min followed by washing with the running buffer.
Adding BSA to the sample had minimal effect on the SPR response for the aptamer modified sensors, indicating a good selectivity of the sensor toward thrombin. This is in contrast to the bare Au sensor, which experienced a significant change between the thrombin samples with, and without, BSA. […]

Bovine serum albumin (BSA), sequence (P02769 25-607, one chain of several): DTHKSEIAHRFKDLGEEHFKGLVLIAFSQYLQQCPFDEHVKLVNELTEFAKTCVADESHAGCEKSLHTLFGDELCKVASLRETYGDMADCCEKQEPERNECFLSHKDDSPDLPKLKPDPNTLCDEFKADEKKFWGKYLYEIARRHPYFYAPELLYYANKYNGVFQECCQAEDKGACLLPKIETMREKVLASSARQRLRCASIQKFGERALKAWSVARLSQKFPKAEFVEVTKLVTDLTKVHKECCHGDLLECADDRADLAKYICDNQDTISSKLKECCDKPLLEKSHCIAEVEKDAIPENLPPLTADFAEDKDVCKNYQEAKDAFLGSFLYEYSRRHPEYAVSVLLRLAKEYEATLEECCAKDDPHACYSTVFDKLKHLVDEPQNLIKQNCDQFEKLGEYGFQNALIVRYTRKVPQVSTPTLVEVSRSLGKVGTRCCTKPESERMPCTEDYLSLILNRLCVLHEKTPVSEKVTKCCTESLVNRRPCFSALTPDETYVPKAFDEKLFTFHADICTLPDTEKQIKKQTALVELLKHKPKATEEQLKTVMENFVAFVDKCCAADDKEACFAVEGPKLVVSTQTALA

## GGTTGGTGTGGTTGG (ssDNA, 5'-NH2-(CH2)6) [APT1 (15-mer thrombin aptamer)]
  binding result: no binding

## CTATCAGTCCGTGGTAGGGCAGGTTGGGGTGACT (ssDNA, 5'-NH2-(CH2)6) [APT2 (34-mer thrombin aptamer)]
  binding result: no binding
